The values that follow come from article doi:10.1101/2024.03.03.583237 (bioRxiv, 2024).

In the test the target is SARS-CoV-2 spike trimer (soluble S-trimer) (SARS-CoV-2 Wuhan-Hu-1 (NC_045512), UniProt P0DTC2). Description: live-cell binding assay.

B1: S2L20-CVR (scFv, V domains shown)
VH: EVQLVESGGGVVQPGGSLRLSCAASGFTFNSYGMHWVRQAPGKGLEWVAFIRYDGGNKYYADSVKGRFTISRDNSKNTLYLQMKSLRAEDTAVYYCANLKDSRYSGSYYDYWGQGTLVTVS
VL: not shown
Consider B1, for which the binding result is reported as “binds”.
